Source: patent publication US20240124563A1 (NANJING ZAIMING PHARMACEUTICAL, published 2024)

What was measured:
[1] = biological target: T1, human MSLN-FL-his protein (human, UniProt Q13421 296-580); test: ELISA, antibody 1 nM
T1 construct: also called hMSLN-FL-his; human MSLN full-length protein; not shown: histidine tag

[2] = biological target: T2, human MSLN-R1-his protein (human, UniProt Q13421 296-390); test: ELISA, antibody 1 nM
T2 construct: MSLN-R1 = Glu296-Thr390; also called hMSLN-R1-his; not shown: histidine tag
T2 chain: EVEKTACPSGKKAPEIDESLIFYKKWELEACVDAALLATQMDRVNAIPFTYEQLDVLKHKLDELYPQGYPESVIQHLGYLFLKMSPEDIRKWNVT

[3] = biological target: T3, human MSLN-R3-his protein (human, UniProt Q13421 487-598); test: ELISA, antibody 1 nM
T3 construct: MSLN-R3 = Met487-Ser598; also called hMSLN-R3-his; not shown: histidine tag
T3 sequence (Q13421 495-606): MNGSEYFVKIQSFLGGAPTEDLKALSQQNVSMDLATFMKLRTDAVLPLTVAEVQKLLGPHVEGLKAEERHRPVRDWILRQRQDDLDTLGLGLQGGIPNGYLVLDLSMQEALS

[4] = biological target: T4, human MSLN-R3-3 polypeptide (purchased from GL Biochem, Cat. No. 406676) (human); test: ELISA, antibody 1 nM
T4 construct: Printed as Val539-Val588; also called hMSLN-R3-3
T4 peptide: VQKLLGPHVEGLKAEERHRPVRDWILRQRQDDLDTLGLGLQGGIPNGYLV

[5] = biological target: T5, human MSLN-R2-his protein (human, UniProt Q13421 391-486); test: ELISA, antibody 1 nM
T5 construct: MSLN-R2 = Ser391-Asn486; also called hMSLN-R2-his; not shown: histidine tag
T5 sequence (Q13421 other isoform, or with tags, fused parts or gaps): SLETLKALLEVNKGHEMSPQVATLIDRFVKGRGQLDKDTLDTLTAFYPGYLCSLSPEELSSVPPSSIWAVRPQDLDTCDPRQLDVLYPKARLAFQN

[6] = biological target: T6, human MSLN-FL-his protein (human, UniProt Q13421 296-580); test: competitive ELISA on MSLN-FL-His; other antibody: Tab142 (R1) (3.m16)
T6 construct: Made in HEK293E cells, purified on nickel column; also called hMSLN-FL-his; not shown: histidine tag

[7] = biological target: T2, human MSLN-R1-his protein; test: ELISA, antibody 0.1 nM
[8] = biological target: T3, human MSLN-R3-his protein; test: ELISA, antibody 0.1 nM
[9] = biological target: T6, human MSLN-FL-his protein; test: competitive ELISA on MSLN-FL-His; other antibody: Tab107 (C) (1.m4)
[10] = biological target: T5, human MSLN-R2-his protein; test: ELISA, antibody 100 nM
[11] = biological target: T6, human MSLN-FL-his protein; test: competitive ELISA on MSLN-FL-His; other antibody: NB148-13 (3.m1)
[12] = biological target: T2, human MSLN-R1-his protein; test: ELISA, antibody 0.0001 nM
[13] = biological target: T2, human MSLN-R1-his protein; test: ELISA, antibody 0.001 nM
[14] = biological target: T6, human MSLN-FL-his protein; test: competitive ELISA on MSLN-FL-His; other antibody: NB148-46 (3.m5)
[15] = biological target: T3, human MSLN-R3-his protein; test: ELISA, antibody 0.001 nM
[16] = biological target: T6, human MSLN-FL-his protein; test: competitive ELISA on MSLN-FL-His; other antibody: NB148-35 (3.m4)
[17] = biological target: T3, human MSLN-R3-his protein; test: ELISA, antibody 10 nM
[18] = biological target: T2, human MSLN-R1-his protein; test: ELISA, antibody 0.01 nM
[19] = biological target: T5, human MSLN-R2-his protein; test: ELISA, antibody 0.001 nM
[20] = biological target: T6, human MSLN-FL-his protein; test: competitive ELISA on MSLN-FL-His; other antibody: NB149-95 (3.m11)
[21] = biological target: T6, human MSLN-FL-his protein; test: competitive ELISA on MSLN-FL-His; other antibody: NB148-27 (3.m3)
[22] = biological target: T6, human MSLN-FL-his protein; test: competitive ELISA on MSLN-FL-His; other antibody: NB149-70 (3.m9)
[23] = biological target: T6, human MSLN-FL-his protein; test: competitive ELISA on MSLN-FL-His; other antibody: NB148-25 (3.m2)
[24] = biological target: T3, human MSLN-R3-his protein; test: ELISA, antibody 0.01 nM
[25] = biological target: T5, human MSLN-R2-his protein; test: ELISA, antibody 0.1 nM
[26] = biological target: T6, human MSLN-FL-his protein; test: competitive ELISA on MSLN-FL-His; other antibody: NB149-31 (3.m7)
[27] = biological target: T3, human MSLN-R3-his protein; test: ELISA, antibody 1 nM; remark: listed apart in the source
[28] = biological target: T5, human MSLN-R2-his protein; test: ELISA, antibody 10 nM

B1: Tab107 (YP3, hIgG1) (antibody, V domains shown)
VH: QEQLVESGGGLVQPGASLTLTCTASGIDFSRYYMCWVRQAPGKGLEGIACIYIGGSGSTYYASWAKGRFTISKASSTTVTLQMTSLTAADTATYFCARGTNLNYIFRLWGPGTLVTVSS
VL: DVVMTQTPSPVSAAVGGTVTIKCQASQSINNGLAWYQQKPGQPPRLLIYSASNLESGVPSRFKGSGSGTEFTLTISDLECDDAATYYCQCIWDGNSYVNAFGGGTEVVVRT
notes: also called YP3 human IgG1 antibody
**Q.** What does the source list for B1?
**A.** OD450 nm [1]: 1.74; OD450 nm [2]: 0.05; OD450 nm [3]: 0.05; OD450 nm [4]: 0.07; OD450 nm [5]: 0.05; inhibition rate [6]: -9%; OD450 nm [7]: 0.05; OD450 nm [8]: 0.05; inhibition rate [9]: 65%; OD450 nm [10]: 0.09; inhibition rate [11]: 38%; OD450 nm [12]: 0.04; OD450 nm [13]: 0.05; inhibition rate [14]: 7%; OD450 nm [15]: 0.05; inhibition rate [16]: 26%; OD450 nm [17]: 0.05; OD450 nm [18]: 0.06; OD450 nm [19]: 0.05; inhibition rate [20]: -5%; inhibition rate [21]: 1%; inhibition rate [22]: -10%; inhibition rate [23]: 23%; OD450 nm [24]: 0.04; OD450 nm [25]: 0.04; inhibition rate [26]: -10%; OD450 nm [27]: 0.05; OD450 nm [28]: 0.05
